For data set [1], the target named is T1, IFN-gamma (Homo sapiens, UniProt P01579 P01579:24-161). Description: filter; full-length. To be noted: tags: Genzyme (Cambridge MA); Upstate Biotechnology for early SELEX rounds; chain copies: 2 inferred. How it is done:
(§1) The determination of equilibrium dissociation constants (Kds) for RNA pools was made subsequent to rounds 5, 8, 12, and 17 to monitor the progress of each SELEX. The Kds of RNA pools for mouse IFN-gamma (Genzyme Inc., Cambridge Mass.) were also determined after rounds 8 and 17. Kds were determined for individual ligands after cloning and sequencing of RNA pools and truncations (described below). Nitrocellulose filter binding was used to determine Kds as follows: filter discs were placed into a vacuum manifold and wetted with 5 ml of mPBS buffer. ^32P-labeled-RNA was incubated with serial dilutions of IFN-gamma in binding buffer for 5–10 min at 37° C. to allow binding to occur. […] The filter discs were dried and counted in a liquid scintillation counter (Beckmann Instruments, Palo Alto Calif.). Equilibrium dissociation constants were determined by least square fitting of the data points using the Kaleidagraph™ graphics program (Synergy Software, Reading Pa.). […] Biphasic binding constants were calculated according to standard procedures. Kds were determined by least square fitting of the data points using the Kaleidagraph™ graphics program.
(§2) The Kds of individual RNAs within each group were determined by nitrocellulose filter binding as described above. The Kds were determined using either a monophasic or biphasic least squares fit of the data.

Data set [2] concerns the target T2, IL-4 (Homo sapiens, UniProt P05112 P05112:25-153). Kind of data set: filter; truncate. To be noted: tags: R&D Systems.
Data set [3] addresses T3, TNF-alpha (Homo sapiens, UniProt P01375 P01375:77-233). Kind of data set: filter; class I. To be noted: tags: Genzyme or R&D Systems; chain copies: 3 inferred.
In data set [4] the target is T3, TNF-alpha. Kind of data set: competition; U937 cells; 3 points. To be noted: tags: Genzyme or R&D Systems; chain copies: 3 inferred. The procedure: (§3) A receptor binding competition assay was used to determine the bioactivity of the RNA ligands. ^125I labelled hTNFα at 0.1 nM was incubated in 50 µl of binding medium (PBS with 0.5 mM Mg^++, 0.2% BSA, 0.02% sodium azide, 1 U/µl RNasin) for 15 min at 4° C. with serially diluted competitors at 10^-4 to 10^-11 M, and 1×10^4/µl U937 cells. Duplicate aliquots were subsequently removed, centrifuged through 2:1 dibutyl-phthalate:dinonyl-phthalate mixture to separate free and bound ^125I labelled hTNFα, and the radioactivity in the pellet was measured on a gamma counter. Nonspecific binding was determined by inclusion of a 200-fold molar excess of unlabeled TNF.

For data set [5], the target named is T3, TNF-alpha. Kind of data set: competition; U937 cells; 2'F version. To be noted: tags: Genzyme or R&D Systems; chain copies: 3 inferred. The procedure: as §3
Data set [6] has as its target T3, TNF-alpha. Kind of data set: filter; 2'F version. The settings on record: tags: Genzyme or R&D Systems; chain copies: 3 inferred.
Data set [7] has as its target T3, TNF-alpha. Description: filter; class II; clone 28A printed with the same sequence but no Kd. The settings on record: tags: Genzyme or R&D Systems; chain copies: 3 inferred.
Data set [8] addresses T1, IFN-gamma. Description: filter; truncate. The settings on record: tags: Genzyme (Cambridge MA); Upstate Biotechnology for early SELEX rounds; chain copies: 2 inferred.
Data set [9] deals with T3, TNF-alpha. Kind of data set: filter; class II. To be noted: tags: Genzyme or R&D Systems; chain copies: 3 inferred.
Data set [10] deals with T1, IFN-gamma. Description: filter; biphasic 3.2/314 nM. To be noted: tags: Genzyme (Cambridge MA); Upstate Biotechnology for early SELEX rounds; chain copies: 2 inferred. The procedure:
as §1, §2

The target of data set [11] is T2, IL-4. Description: filter; full-length; mPBS 1 mM Mg, 0.01% HSA, 37 C. To be noted: tags: R&D Systems.
Data set [12] deals with T2, IL-4. Kind of data set: filter; full-length. The settings on record: tags: R&D Systems.
Data set [13] concerns the target T2, IL-4. Description: competition; 0.7 nM 125I-IL-4, H-9 cells. To be noted: tags: R&D Systems.
Procedure: Following incubation, the tubes were spun (150×g, 5 min, 4° C.) and the supernatant was aspirated. The cell pellet was resuspended in 200 μl RPMI-HSA. 100 μl aliquots were centrifuged through a cushion of an equal volume of phthalate oils (dibutyl/dioctyl, 1:1 v/v). The tube was rapidly frozen in dry ice/ethanol and the tip containing the cell pellet was cut off and placed in a vial for gamma counting.
Data set [14] addresses T3, TNF-alpha. Kind of data set: competition; U937 cells. To be noted: tags: Genzyme or R&D Systems; chain copies: 3 inferred. How it is done:
as §3

The target in data set [15] is T1, IFN-gamma. Kind of data set: filter; biphasic 6.8/320 nM; mPBS 1 mM Mg, 0.01% HSA, 37 C. The settings on record: tags: Genzyme (Cambridge MA); Upstate Biotechnology for early SELEX rounds; chain copies: 2 inferred. The procedure:
as §1, §2

The target in data set [16] is T1, IFN-gamma. Kind of data set: filter; biphasic 9.3/232 nM. To be noted: tags: Genzyme (Cambridge MA); Upstate Biotechnology for early SELEX rounds; chain copies: 2 inferred. How it is done:
as §1, §2

For data set [17], the target named is T1, IFN-gamma. Description: filter; biphasic 4.4/716 nM. To be noted: tags: Genzyme (Cambridge MA); Upstate Biotechnology for early SELEX rounds; chain copies: 2 inferred. The procedure: as §1, §2
For data set [18], the target named is T1, IFN-gamma. Description: filter; biphasic 8.8/384 nM. The settings on record: tags: Genzyme (Cambridge MA); Upstate Biotechnology for early SELEX rounds; chain copies: 2 inferred. The procedure:
as §1, §2

In data set [19] the target is T3, TNF-alpha. Kind of data set: filter; orphan. To be noted: tags: Genzyme or R&D Systems; chain copies: 3 inferred.
In data set [20] the target is T3, TNF-alpha. Description: filter; DPBS; class I. To be noted: tags: Genzyme or R&D Systems; chain copies: 3 inferred.
Data set [21] deals with T3, TNF-alpha. Description: competition; 125I-hTNFa binding to U937 cells, 4 C. To be noted: tags: Genzyme or R&D Systems; chain copies: 3 inferred. How it is done: as §3

T1 sequence (P01579 24-161, one chain of several): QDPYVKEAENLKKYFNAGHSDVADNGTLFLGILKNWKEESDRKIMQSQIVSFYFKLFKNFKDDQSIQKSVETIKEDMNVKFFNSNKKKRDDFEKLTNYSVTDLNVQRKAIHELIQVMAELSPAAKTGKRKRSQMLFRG
T3 sequence (P01375 77-233, one chain of several): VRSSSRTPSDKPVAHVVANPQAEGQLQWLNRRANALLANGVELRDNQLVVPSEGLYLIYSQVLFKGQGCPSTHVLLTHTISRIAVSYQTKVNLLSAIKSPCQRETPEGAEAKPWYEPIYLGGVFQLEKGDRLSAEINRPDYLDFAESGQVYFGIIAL
T2 sequence (P05112 25-153, one chain of several): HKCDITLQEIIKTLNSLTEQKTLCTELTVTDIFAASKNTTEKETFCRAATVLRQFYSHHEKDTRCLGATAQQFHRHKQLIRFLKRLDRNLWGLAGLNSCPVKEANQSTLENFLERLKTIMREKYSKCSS

B1: IFN-gamma 2'F-28 (ssRNA)
RNA: GGGAGGACGAUGCGGAGGGUUGGGAGGGGUCCUUCUUUUCGUCUGCGUGGACCGUCAGACGACUCGCCCGA
modifications: 2'-F all C and U
Take B1: the dissociation constant Kd (commonly the constant that tells how readily two partners part at equilibrium) with IFN-gamma [1] is 35 nM.

Consider GGGAAACGGCUGUAACAAACAAGGUGGGGGGCCACACA (ssRNA, 2'-F all C and U) [IL-4 2'F-9 truncate], for which, in the data set with IL-4 [2], the affinity, expressed as Kd, was 18 nM.

B2: TNF 23A (ssRNA)
RNA: GGGAGCUCAGAAUAAACGCUCAACCUCAUCCUCGCACGCCAUCGCCUGAACCGUUCGACAUGAGGCCCGGAUCCGGC
Turning to B2, binding with TNF-alpha [3] was characterised by a dissociation constant (Kd) of 52 nM. In addition, in the data set with TNF-alpha [4], the Ki (as a rule, a dissociation constant, usually derived from enzyme kinetics or from competition with a known ligand) is approximately 241 nM.

B3: TNF 23A 2'F (ssRNA)
RNA: GGGAGCUCAGAAUAAACGCUCAACCUCAUCCUCGCACGCCAUCGCCUGAACCGUUCGACAUGAGGCCCGGAUCCGGC
modifications: 2'-F all C and U
On to B3, for which, in the data set with TNF-alpha [5], affinity was put at a Ki of 14700 nM. The molecule further registered a Kd in the data set with TNF-alpha [6] of 400 nM.

B4: TNF 16C (ssRNA)
RNA: GGGAGCUCAGAAUAAACGCUCAACCUGGUGGUCGUGCGGCUGUCGCCUCAAGGUUCGACAUGAGGCCCGGAUCCGGC
For B4, in the data set with TNF-alpha [3], the Kd is 200 nM. The molecule further showed a Ki in the data set with TNF-alpha [4] of approximately 313 nM.

B5: TNF 16C 2'F (ssRNA)
RNA: GGGAGCUCAGAAUAAACGCUCAACCUGGUGGUCGUGCGGCUGUCGCCUCAAGGUUCGACAUGAGGCCCGGAUCCGGC
modifications: 2'-F all C and U
Molecule B5 gave a Ki in the data set with TNF-alpha [5] of 9190 nM. Moreover, in the data set with TNF-alpha [6], the Kd was determined as 123 nM.

B6: TNF 8C (ssRNA)
RNA: GGGAGCUCAGAAUAAACGCUCAAGUCCACACUUUGCCGAGCGUCCUAGUGUUCGACAUGAGGCCCGGAUCCGGC
B6 came in with a Kd in the data set with TNF-alpha [7] of 430 nM. GGGAGGACGAUGCGGAGGGUUGGGAGGGGUCCUUCUU (ssRNA, 2'-F all C and U) [IFN-gamma 2'F-28 truncate] had a Kd with IFN-gamma [8] of 53 nM.

B7: TNF 4A (ssRNA)
RNA: GGGAGCUCAGAAUAAACGCUCAACGCACUCGGACGGAAUCUCCGUAGGACACGUUCGACAUGAGGCCCGGAUCCGGC
In turn, B7 displayed a Kd with TNF-alpha [9] of 320 nM.

B8: IFN-gamma 2'F-6 (ssRNA)
RNA: GGGAGGACGAUGCGGUGGAGUUUUAAUCUUACUUCCUACUCUUGCUCCACUGGGUCAGACGACUCGCCCGA
modifications: 2'-F all C and U
For the molecule B8, the dissociation constant (Kd) with IFN-gamma [10] was determined as 3.2 nM.

B9: IL-4 2'F-9 (ssRNA)
RNA: GGGAGACAAGAAUAAACGCUCAAACGGCUGUAACAAACAAGGUGGGGGGCCACACAGAGCGGGUUCGACUUCGACAGGAGGCUCACAACAGGC
modifications: 2'-F all C and U
On to B9, for which the Kd with IL-4 [11] came to 14.7 nM.

B10: IFN-gamma 2'F/NH2-3 (ssRNA)
RNA: GGGAGGACGAUGCGGUUCAGAGGGUAGGUAAGUGGGAGGAAAAAUGCCGUAUCGCCUCAGACGACUCGCCCGA
modifications: 2'-F all C, 2'-NH2 all U
For the molecule B10, the Kd in the data set with IFN-gamma [1] amounted to 106 nM.

B11: IL-4 2'F/NH2-9 (ssRNA)
RNA: GGGAGACAAGAAUAAACGCUCAAAGAGUGCAGGUCUGGGGCGCCACAAUUACAACGGCAAUAAUUCGACAGGAGGCUCACAACAGGC
modifications: 2'-F all C, 2'-NH2 all U
The molecule B11 registered a Kd with IL-4 [12] of 3.3 nM. Further, the IC50 (as a rule, the concentration that gives 50% inhibition) with IL-4 [13] is approximately 40 nM.

B12: TNF 14C (ssRNA)
RNA: GGGAGCUCAGAAUAAACGCUCAACGGCUUGCAGGUCGCCGAAAUGACCGCACAUUCGACAUGAGGCCCGGAUCCGGC
Take B12: in the data set with TNF-alpha [14], the Ki turned out to be 930 nM. In the data set with TNF-alpha [9], binding was put at a Kd of 60 nM.

B13: TNF 14C 2'F (ssRNA)
RNA: GGGAGCUCAGAAUAAACGCUCAACGGCUUGCAGGUCGCCGAAAUGACCGCACAUUCGACAUGAGGCCCGGAUCCGGC
modifications: 2'-F all C and U
B13 yielded an inhibition constant Ki with TNF-alpha [5] of 11500 nM. The affinity with TNF-alpha [6], expressed as Kd, was 133 nM.

B14: IFN-gamma 2'F-1 (ssRNA)
RNA: GGGAGGACGAUGCGGACACCGUUAAUCUGAGGCCCUGUCCUAUUCCUUCACGCCUCAGACGACUCGCCCGA
modifications: 2'-F all C and U
Take B14: the Kd in the data set with IFN-gamma [15] worked out at 6.8 nM.

B15: IFN-gamma 2'F-16 (ssRNA)
RNA: GGGAGGACGAUGCGGCAUCCCUAGAGCAGCCAGCCGGAAAGAAGUCACGCCUGCUCAGACGACUCGCCCGA
modifications: 2'-F all C and U
B15: the Kd with IFN-gamma [16] amounted to 9.3 nM.

B16: IFN-gamma 2'F-1 truncate (ssRNA)
RNA: GGGAGGACGAUGCGGACACCGUUAAUCUGAGGCCCUGUCCUAUUCCUUCACGCCUCAGA
modifications: 2'-F all C and U
On to B16, for which the Kd with IFN-gamma [17] was determined as 4.4 nM.

B17: IFN-gamma 2'F-27 (ssRNA)
RNA: GGGAGGACGAUGCGGAACACCCCCGGUCUGACGCUUGUUCCGAAUUCCUCCACCGUCAGACGACUCGCCCGA
modifications: 2'-F all C and U
Take B17: in the data set with IFN-gamma [18], the Kd turned out to be 8.8 nM.

B18: TNF 18C (ssRNA)
RNA: GGGAGCUCAGAAUAAACGCUCAAUGUCGAGUGCGAUGGAGGAGUAGGGAUGCAUUCGACAUGAGGCCCGGAUCCGGC
B18: in the data set with TNF-alpha [14], the inhibition constant (Ki) was 2500 nM. Besides, in the data set with TNF-alpha [19], binding was put at a Kd of 460 nM.

B19: TNF 6A (ssRNA)
RNA: GGGAGCUCAGAAUAAACGCUCAACCACUGGCUAGGAACUCGAGUACUGGGUGGUUCGACAUGAGGCCCGGAUCCGGC
In the data set with TNF-alpha [14], B19 displayed an inhibition constant Ki of 9100 nM. In addition, the Kd in the data set with TNF-alpha [9] was 120 nM.

B20: TNF 6A 2'F (ssRNA)
RNA: GGGAGCUCAGAAUAAACGCUCAACCACUGGCUAGGAACUCGAGUACUGGGUGGUUCGACAUGAGGCCCGGAUCCGGC
modifications: 2'-F all C and U
Regarding B20, the Ki with TNF-alpha [5] came out at 8160 nM. In addition, the Kd with TNF-alpha [6] was 74 nM.

B21: TNF 25A (ssRNA)
RNA: GGGAGCUCAGAAUAAACGCUCAAGGCCGCAUGCCCCUCCUAACAGCAUGCAACUUCGACAUGAGGCCCGGAUCCGGC
On to B21, for which, in the data set with TNF-alpha [20], the affinity, expressed as Kd, was 40 nM. In the data set with TNF-alpha [21], the Ki amounted to 21 nM. GGGAGGACGAUGCGGCAGGUAAUUACAUGAAGGUGGGUUAGGUA (ssRNA, 2'-NH2 all C and U) [IFN-gamma 2'NH2-30 truncate] returned a Kd with IFN-gamma [8] of 11 nM.

B22: IL-4 2'NH2-29 truncate (ssRNA)
RNA: GGGACGCUCAAGAGCUGGUGAGCCACGUAUACGGCCUUAGGGGCUUGGGCG
modifications: 2'-NH2 all C and U
Take B22: the dissociation constant Kd with IL-4 [2] turned out to be 10 nM.

For the origin of these results see patent US5972599, “High affinity nucleic acid ligands of cytokines” (NeXstar Pharmaceuticals, Inc.).
